Bridge positions count the residues as written; N and C are the ends. Square brackets hold non-standard residues; d marks the D form. Ends that are not written are not given here. Ala(1-amidino-4-piperidyl) = N=C(N)N1CCC(C[C@H](N)C(=O)O)CC1; Phe(4-guanidino) = N=C(N)Nc1ccc(C[C@H](N)C(=O)O)cc1

Sequences and labels used below:
B1: mupain-1 (peptide)
peptide: CPAYSRYLDC
modifications: disulfide 1-10 (inferred)
notes: Synthesised on a resin with Rink amide linker; source: synthetic peptide (solid-phase synthesis, HPLC purified)
B2: Mupain-1 D9A (peptide)
peptide: CPAYSRYLAC
modifications: disulfide 1-10 (inferred)
notes: mupain-1 with D9A; Rink amide linker resin; C-terminal amide surmised; source: synthetic peptide (solid-phase synthesis, HPLC purified)

T4 sequence (P06869 21-433): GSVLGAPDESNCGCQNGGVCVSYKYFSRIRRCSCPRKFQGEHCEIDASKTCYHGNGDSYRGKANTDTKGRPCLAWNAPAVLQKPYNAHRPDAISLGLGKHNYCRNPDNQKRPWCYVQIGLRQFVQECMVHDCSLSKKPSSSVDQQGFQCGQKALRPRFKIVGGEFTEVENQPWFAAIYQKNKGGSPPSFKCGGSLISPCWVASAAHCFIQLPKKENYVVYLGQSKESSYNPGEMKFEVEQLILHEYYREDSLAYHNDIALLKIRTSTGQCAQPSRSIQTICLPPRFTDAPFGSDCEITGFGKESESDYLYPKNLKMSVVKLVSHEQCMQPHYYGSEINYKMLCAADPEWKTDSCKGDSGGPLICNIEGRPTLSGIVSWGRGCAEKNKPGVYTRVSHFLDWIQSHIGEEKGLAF

The first assay deals with T1, muPA-S190A (murine).
T1 construct: site directed mutant of full length muPA; numbers count on: chymotrypsin numbering; Two-chain form after plasmin; source: HEK293 6E, transfected; treated with plasmin
The assay is described as follows: enzyme inhibition (steady state, chromogenic substrate S-2444); about 2 nM enzyme (purified or conditioned medium of transfected cells) pre-incubated 15 min with varied peptide in HBS (10 mM HEPES pH 7.4, 140 mM NaCl) with 0.1% BSA at 37°C; substrate about KM; fit for competitive inhibition; highest peptide concentration 400 µM.
Conditions: not given
In the case of CPAYS[Ala(1-amidino-4-piperidyl)]YLDC (disulfide 1-10; not fully specified) [mupain-1-16], the affinity corresponds to a Ki of 0.352 µM.

For the molecule CPAYS[Phe(4-guanidino)]YLDC (disulfide 1-10) [mupain-1-12], affinity was put at a Ki of 2.3 µM.

For CPAYS[Ala(1-amidino-4-piperidyl)]YLAC (disulfide 1-10; not fully specified) [Mupain-1-16 D9A], the Ki (commonly a measure of affinity in units of concentration, obtained from inhibition or displacement) was 0.529 µM.

Another assay deals with T2, muPA-V213T (murine).
T2 construct: site directed mutant of full length muPA; numbers count on: chymotrypsin numbering; Two-chain form after plasmin; source: HEK293 6E, transfected; treated with plasmin
Described as above.
Conditions: not given
Molecule CPAYS[Ala(1-amidino-4-piperidyl)]YLDC (disulfide 1-10; not fully specified) [mupain-1-16] registered a Ki of 0.013 µM.

For CPAYS[Phe(4-guanidino)]YLDC (disulfide 1-10) [mupain-1-12], the inhibition constant (Ki) amounted to 0.086 µM.

Molecule CPAYS[Ala(1-amidino-4-piperidyl)]YLAC (disulfide 1-10; not fully specified) [Mupain-1-16 D9A] displayed a Ki of 0.014 µM. This Ki lies about 6.1-fold lower than the previous one.

In the next assay the target is T3, huPA-H99Y (full length human urokinase-type plasminogen activator with H99Y) (human). The assay can be described thus: SPR; Biacore T200; uPA variant amine-coupled to a CM5 chip (about 500 RU); peptides injected in HBS with 0.1% BSA, 30 µL/min, 25°C, pH 7.4; 1:1 kinetic fit; KD = koff/kon. The settings on record: both partners purified.
CPAYS[Ala(1-amidino-4-piperidyl)]YLDC (disulfide 1-10; not fully specified) [mupain-1-16]: the equilibrium dissociation constant (Kd) (as a rule, the free concentration of one partner at which half of the binding sites on the other are occupied at equilibrium, for simple one-to-one binding) turned out to be 0.844 µM; the koff – broadly, the first-order rate constant of dissociation – came out at 0.0893 s⁻¹; the on-rate constant (kon) (as a rule, a measure of how fast the partners come together) was determined as 107000 M⁻¹ s⁻¹.

CPAYS[Phe(4-guanidino)]YLDC (disulfide 1-10) [mupain-1-12]: the Kd stood at 1.21 µM, the off-rate constant (koff) stood at 0.246 s⁻¹ and the kon stood at 206000 M⁻¹ s⁻¹.

CPAYS[Ala(1-amidino-4-piperidyl)]YLAC (disulfide 1-10; not fully specified) [Mupain-1-16 D9A]: binding was characterised by a dissociation constant (Kd) of 0.0718 µM, the off-rate constant (koff) was found to be 0.0333 s⁻¹ and the kon turned out to be 465000 M⁻¹ s⁻¹.

Another assay addresses T4, murine urokinase-type plasminogen activator (muPA) wild type (murine, UniProt P06869 21-433).
T4 construct: cDNA encoding full length muPA; Two-chain form after plasmin; also called muPA wt; muPA-wt; source: HEK293 6E, transfected; treated with plasmin
The assay is described as above. The settings on record: both partners purified.
CPAYS[Ala(1-amidino-4-piperidyl)]YLDC (disulfide 1-10; not fully specified) [mupain-1-16] displayed a Kd of 0.0894 µM, a koff of 0.00671 s⁻¹ and a kon of 89800 M⁻¹ s⁻¹.

In turn, CPAYS[Phe(4-guanidino)]YLDC (disulfide 1-10) [mupain-1-12] had a Kd of 0.138 µM, an off-rate (koff) of 0.0192 s⁻¹ and a kon of 156000 M⁻¹ s⁻¹.

Molecule CPAYS[Ala(1-amidino-4-piperidyl)]YLAC (disulfide 1-10; not fully specified) [Mupain-1-16 D9A] returned a dissociation constant Kd of 0.0213 µM, a koff of 0.0122 s⁻¹ and a kon of 579000 M⁻¹ s⁻¹.

Turning to B1, the Kd is 0.398 µM, the koff is 0.0364 s⁻¹ and the kon amounted to 91400 M⁻¹ s⁻¹.

With B2, the Kd came out at 0.417 µM, the off-rate (koff) was 0.0401 s⁻¹ and the kon was determined as 98500 M⁻¹ s⁻¹.

The next assay deals with huPA-H99Y-R35A (human). The assay can be described thus: enzyme inhibition (steady state, chromogenic substrate S-2444); about 2 nM enzyme (purified or conditioned medium of transfected cells) pre-incubated 15 min with varied peptide in HBS (10 mM HEPES pH 7.4, 140 mM NaCl) with 0.1% BSA at 37°C; substrate about KM; fit for competitive inhibition; highest peptide concentration 400 µM.
Conditions: not given
Take CPAYS[Ala(1-amidino-4-piperidyl)]YLDC (disulfide 1-10; not fully specified) [mupain-1-16]: the affinity, expressed as Ki, was 2.5 µM.

On to CPAYS[Phe(4-guanidino)]YLDC (disulfide 1-10) [mupain-1-12], for which the Ki stood at 3.26 µM. The Ki values of the last two molecules are within 1.5-fold of each other.

CPAYS[Ala(1-amidino-4-piperidyl)]YLAC (disulfide 1-10; not fully specified) [Mupain-1-16 D9A] registered a Ki of 0.174 µM. Against the preceding molecule, the Ki is about 19-fold lower.

The target in another assay is huPA-H99Y-V41A (human). The assay is described as above.
Conditions: not given
CPAYS[Ala(1-amidino-4-piperidyl)]YLDC (disulfide 1-10; not fully specified) [mupain-1-16] had a Ki of 1.95 µM.

The molecule CPAYS[Phe(4-guanidino)]YLDC (disulfide 1-10) [mupain-1-12] had an inhibitory constant (Ki) of 1.6 µM. The Ki values of the last two molecules are within 1.5-fold of each other.

For the molecule CPAYS[Ala(1-amidino-4-piperidyl)]YLAC (disulfide 1-10; not fully specified) [Mupain-1-16 D9A], the affinity corresponds to a Ki of 0.48 µM.

The target in the next assay is T3, huPA-H99Y (full length human …). The description is as above.
Conditions: not given
CPAYS[Ala(1-amidino-4-piperidyl)]YLAC (disulfide 1-10; not fully specified) [Mupain-1-16 D9A] returned an inhibition constant Ki of 0.309 µM.

Another assay deals with huPA-H99Y-K143A (human). The description is as above.
Conditions: not given
The molecule CPAYS[Ala(1-amidino-4-piperidyl)]YLDC (disulfide 1-10; not fully specified) [mupain-1-16] gave an inhibitory constant (Ki) of 1.13 µM.

Molecule CPAYS[Phe(4-guanidino)]YLDC (disulfide 1-10) [mupain-1-12] gave an inhibition constant (Ki) of 2.14 µM. Compared with the last molecule, the Ki is about 1.9-fold higher.

Molecule CPAYS[Ala(1-amidino-4-piperidyl)]YLAC (disulfide 1-10; not fully specified) [Mupain-1-16 D9A] displayed a Ki of 0.188 µM.

A further assay concerns the target huPA-H99Y-Q192A (human). The assay is described as above.
Conditions: not given
On to CPAYS[Ala(1-amidino-4-piperidyl)]YLDC (disulfide 1-10; not fully specified) [mupain-1-16], for which the affinity corresponds to a Ki of 2.71 µM.

Turning to CPAYS[Phe(4-guanidino)]YLDC (disulfide 1-10) [mupain-1-12], the Ki is 2.35 µM.

On to CPAYS[Ala(1-amidino-4-piperidyl)]YLAC (disulfide 1-10; not fully specified) [Mupain-1-16 D9A], for which the inhibition constant (Ki) was found to be 0.438 µM.

For a further assay, the target named is recombinant catalytic domain of huPA-H99Y (residues 159-411) (human, UniProt P00749 179-431). The assay is described as follows: ITC; MicroCal ITC200; peptide injected into 5-50 µM huPA-H99Y catalytic domain; 20 mM sodium phosphate pH 7.4, 140 mM NaCl, 25°C; one-binding-site model. The following applies: both partners purified. Background: ITC needs no label: the signal is the heat of the interaction.
Turning to CPAYS[Ala(1-amidino-4-piperidyl)]YLDC (disulfide 1-10; not fully specified) [mupain-1-16], the Kd was determined as 0.38 µM; the dH is -33.2 kJ/mol; the stoichiometry N – broadly, a count of units in the complex or per binding partner – was determined as 0.87.

On to CPAYS[Phe(4-guanidino)]YLDC (disulfide 1-10) [mupain-1-12], for which the Kd stood at 0.4 µM, the dH is -43.8 kJ/mol and the “stoichiometry N” value came to 0.85.

As for CPAYS[Ala(1-amidino-4-piperidyl)]YLAC (disulfide 1-10; not fully specified) [Mupain-1-16 D9A], the Kd came out at 0.134 µM, the dH is -46.6 kJ/mol and the “stoichiometry N” value turned out to be 0.88.

For a further assay, the target named is T5, muPA-K143A (murine).
T5 construct: site directed mutant of full length muPA; numbers count on: chymotrypsin numbering; Two-chain form after plasmin; source: HEK293 6E, transfected; treated with plasmin
The assay is described as follows: enzyme inhibition (steady state, chromogenic substrate S-2444); about 2 nM enzyme (purified or conditioned medium of transfected cells) pre-incubated 15 min with varied peptide in HBS (10 mM HEPES pH 7.4, 140 mM NaCl) with 0.1% BSA at 37°C; substrate about KM; fit for competitive inhibition; highest peptide concentration 400 µM.
Conditions: not given
For the molecule CPAYS[Ala(1-amidino-4-piperidyl)]YLDC (disulfide 1-10; not fully specified) [mupain-1-16], the Ki came to 0.13 µM.

On to CPAYS[Phe(4-guanidino)]YLDC (disulfide 1-10) [mupain-1-12], for which the inhibition constant (Ki) is 1 µM.

CPAYS[Ala(1-amidino-4-piperidyl)]YLAC (disulfide 1-10; not fully specified) [Mupain-1-16 D9A] yielded an inhibition constant (Ki) of 0.1 µM.

The target in another assay is T6, muPA-Y99A (murine).
T6 construct: site directed mutant of full length muPA; numbers count on: chymotrypsin numbering; Two-chain form after plasmin; source: HEK293 6E, transfected; treated with plasmin
Described as above.
Conditions: not given
CPAYS[Ala(1-amidino-4-piperidyl)]YLDC (disulfide 1-10; not fully specified) [mupain-1-16] registered a Ki of 1.24 µM. In other words, the single-digit micromolar range.

CPAYS[Phe(4-guanidino)]YLDC (disulfide 1-10) [mupain-1-12] displayed a Ki of 5.2 µM.

With CPAYS[Ala(1-amidino-4-piperidyl)]YLAC (disulfide 1-10; not fully specified) [Mupain-1-16 D9A], affinity was put at a Ki of 1.36 µM. This Ki lies about 3.8-fold lower than the previous one.

The target of the next assay is T4, murine urokinase-type plasminogen …. The assay is described as above.
Conditions: not given
CPAYS[Ala(1-amidino-4-piperidyl)]YLAC (disulfide 1-10; not fully specified) [Mupain-1-16 D9A]: affinity was put at a Ki of 0.076 µM.

A further assay addresses T7, muPA-K41A (murine).
T7 construct: site directed mutant of full length muPA; numbers count on: chymotrypsin numbering; Two-chain form after plasmin; source: HEK293 6E, transfected; treated with plasmin
Described as above.
Conditions: not given
As to CPAYS[Ala(1-amidino-4-piperidyl)]YLDC (disulfide 1-10; not fully specified) [mupain-1-16], the affinity, expressed as Ki, was 0.3 µM. In other words, the sub-micromolar range.

The molecule CPAYS[Phe(4-guanidino)]YLDC (disulfide 1-10) [mupain-1-12] came in with a Ki of 1.72 µM. Against the preceding molecule, the Ki is about 5.7-fold higher.

As for CPAYS[Ala(1-amidino-4-piperidyl)]YLAC (disulfide 1-10; not fully specified) [Mupain-1-16 D9A], the inhibitory constant (Ki) was 0.014 µM.

The values above are taken from publication PMC4278837, “A Cyclic Peptidic Serine Protease Inhibitor: Increasing Affinity by Increasing Peptide Flexibility” (PLoS ONE, 2014).
